Data from the nanobody polyreactivity screen of Harvey et al. (2022).

Test: yeast display, Sf9 membrane polyspecificity reagent, FACS + sequencing; frameworks hold sequencing errors
Procedure, shortened: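 After 36–48 hours of galactose induction, yeast (Saccharomyces cerevisiae BJ5465) displaying a synthetic nanobody library were stained at 4 °C for 1 hour with 10% biotinylated, detergent-solubilized Sf9 membrane reagent. Streptavidin microbeads enriched the stained cells before FACS sorting into low and high (top ~1%) gates on anti-HA and streptavidin fluorescence. Each clone's polyreactivity label reflects its gate of origin.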

Sequence | polyreactivity (PSR sort gate)
QVQLVESGGGLVQAGGSLRLSCAASGRTFLLNAMGWYRQAPGKERELVAAITRSGVITYYADSVKGRFTISRDNAKNTVYLQMNSLKPEDTAVYYCAAQLRYSYLRPSYYYWGQGTQVTVSS | high polyreactivity
QVELVESGGGLGQAGGSLRLSCAASGSTFASNTLGWYRQAPGKEREVVAAITQSGGTTYYADSVKGRFTISRDNAKNTVFLQMNSLKPEDTAVYYDYWGQGTQVTVSS | low polyreactivity
QVQLVESGGGLVQAGGSLRLSCAASGFIFRVYAMGWYRQAPGKERELVAAITRAGNTYYADSVKGRFTISRDNAMNTVYLQMNSLKPEDTAVYYCNKYHYWASPMNYWGQGTQVTVSS | high polyreactivity
QVQLVESGGGLVQAGGSLRLSCAASGSTFTDYAMGWYRQAPGKERELVAAITDSGGRTYYADSVKGRFTISRDNAKNTVYLQMNSLKPEDTAVYYCATEDDRWYYWGQGTQVTVSS | high polyreactivity
QVKLVESGGGLDQAGGSLRLSCAAYGSIFGDYVMGWYRQAPGKEMEFVAAISGSGGSTYYADSVKWRFTISRVNAKNTVYLQMNCLKPEDTAVYYCSTSGPQYYSRNLDYWGQGTQVTVSS | low polyreactivity
QVQLVESGGGLVQAGGSLRLSCAASGSTFRYYVMGWYRQAPGKERELVAAISSSGGSTYYADSVKGRFTISRDIAKNTVYLQMNSLKPEDTAVYYCARDKGYVSYRYNYWGQGTQVTVSS | high polyreactivity
QVQRVESGGGLFQAGGRLRLSCAASGLIFPWYARGWYRQAPGKERELVAAISVRGGSTYYADSVKGRFTISRDNAKNTVYLQMNSLKPEDTAVYYCAASKRRASYRYYYWGQGTQVTVSS | high polyreactivity
QVQLVESGGGLVQAGGSLRLSCAASGRTLRYNTMGWYRQAPGKERELVAAITRSGTGTNYADSVKGRFTISRDNAKNTVYLQMNSLKPEDTAVYYCAAAPFPRRRYDYWGQGTQVTVSS | high polyreactivity
QVQLVESGGGLVQAGGSLRLSCAASGRIFVQNAMGWYRQAPGKERELVAAISISGARTYYADSVKGRFTISRDNAKNSDYLQMNRLKPEDTAVYYCNASYRDEDDYWGQGTQVTVSS | high polyreactivity
QVQLVESGGGLVQAGGSLRISCAASGIIFSVYAMAWYRQAPGKERELVAAISYSGGRTYYADSVKGRFTISRDNAKNTVYLQMNSLKPEDTAVYYCAAGFSLYLGFEYWGQGTQVTVSS | high polyreactivity
QVQLVESGGCLVQAGGSLRLSCAASGSIYGYTMGWYRQAPGKERELVAAINRRADRTYYADSVKGRFTISRDNAKNTVYLQMNSLKPEDTAVYYCATLQGDSSSQYDYWGHGTQVTVSS | high polyreactivity
QVQLVESGGGLVQAGGSLRLSSAASGSTFYWYTMGWYRQAPGKERELVARISKRGGSTYYADSVKGRFTISRDNAKNTVYLQMNSLKPEDTAVYYCNATSRTVGFGYWGQGTQVTVSS | high polyreactivity
QVQLVESGGGLVQAGGSLRLSCAASGRIFSTYAMGWYRQAPGKERELVAAISWRGGNTYYADSVKGRFTISRDNAKNTVYLQMNSLKPEDTAVFYCAAASFAYPYRNSALDYWGQGTQVTVSS | high polyreactivity
QGQLVESGGGLFQAGGSLSLSCASSGRTITHNVMGWYRQAPGKEMELVAGISSTGGSTYYADSVKGRFTISRDNSKNTVYLQMNSLKPEDTAVYYCAKEYYDGYFPSFDYEYWGQGTQVTVSS | low polyreactivity
QVQLVESCGGLVQAGGSLRLSCAASGYTFGYYAMGWYRQAPGKERELVAAISWRGARTNYADSVKGRFTISRDNAKNNVYLQMNSLKPEDTAVYYCNAPKHNTVYTDRYDYWGQGTQVTVSS | high polyreactivity
QVQLVESGGGLVQAGGSLRLSCAACGRIFTPNAMGWYRPAPGKERELVAAITWSGDNTYADSVKGRFTISRDNAKNTVYLQMNSLKPEDTAVYYCAAAYGYGHKNYGYWRQGTQVTVSS | low polyreactivity
QVQLVDSGGGLVQAGGSLRLSFAASGITFFYYAMGWYRQAPGKERELVAAISTSGGRTYYADSVKGRFTISRDNAKNTVYLQMNSLKPEDTAVYYSAAQSGWLRYYYWGQGTQVTVSS | high polyreactivity
